Measurements from article PMC10107491, “Phosphorylation of S11 in PHR1 negatively controls its transcriptional activity”.

Biological target: PHR1-His (UniProt Q94CL7 1-409)
Experiment: EMSA; without SnRK1 (unphosphorylated); 10 mM Tris-HCl pH 8.0, 100 mM NaCl, 10% glycerol, 2 mM DTT, 0.05% NP-40; 0.5 ug protein in 30 ul, 22 C, 30 min; 4.5% acrylamide gel, 0.5x TBE
Details: protein: recombinant; tags: His (pET28b(+)); chain copies: 2; label: 32P 5' end label on sense strand (T4 PNK); blunt

Chain of PHR1-His (Q94CL7 whole entry): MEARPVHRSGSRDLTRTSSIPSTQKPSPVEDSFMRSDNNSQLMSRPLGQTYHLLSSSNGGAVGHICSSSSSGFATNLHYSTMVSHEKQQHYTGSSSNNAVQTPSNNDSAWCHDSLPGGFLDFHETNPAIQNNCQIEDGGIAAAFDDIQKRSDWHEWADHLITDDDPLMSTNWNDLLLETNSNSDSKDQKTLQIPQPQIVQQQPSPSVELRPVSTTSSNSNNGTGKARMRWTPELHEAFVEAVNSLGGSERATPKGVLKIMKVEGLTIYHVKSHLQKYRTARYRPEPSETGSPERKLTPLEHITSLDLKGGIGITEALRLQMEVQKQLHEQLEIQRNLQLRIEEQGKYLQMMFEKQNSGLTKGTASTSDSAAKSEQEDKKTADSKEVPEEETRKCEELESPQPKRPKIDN

B1: AtIPS1 P1BS probe (dsDNA)
DNA 1: CAATTTTGGTAACGGCATATTCCATCGGATGATCCAAAATTCTCAAAA
DNA 2: TTTTGAGAATTTTGGATCATCCGATGGAATATGCCGTTACCAAAATTG
  binding result: binds
